# Assay results: the Immune Epitope Database (IEDB)
# Key:
# HLA-A*01:01 = assay: IEDB peptide-MHC binding, purified MHC/competitive/radioactivity; filed as Kd, often an IC50 or EC50 that approximates it; ≥ and ≤ were set here for values at or beyond the usual limits of such assays
# HLA-A*02:01 [1] = assay: as above
# HLA-A*24:02 = assay: as above
# HLA-A*03:01 [2] = assay: IEDB peptide-MHC binding, purified MHC/competitive/radioactivity; ≥ and ≤ were set here for values at or beyond the usual limits of such assays; conditions: source organism: Human immunodeficiency virus type 1 (NDK ISOLATE)
# HLA-A*11:01 = assay: IEDB peptide-MHC binding, purified MHC/competitive/radioactivity; filed as Kd, often an IC50 or EC50 that approximates it; ≥ and ≤ were set here for values at or beyond the usual limits of such assays
# HLA-A*02:01 [3] = assay: IEDB peptide-MHC binding, purified MHC/competitive/radioactivity; ≥ and ≤ were set here for values at or beyond the usual limits of such assays; conditions: source organism: Hepatitis B virus subtype adyw
# HLA-A*03:01 [4] = assay: IEDB peptide-MHC binding, purified MHC/competitive/radioactivity; filed as Kd, often an IC50 or EC50 that approximates it; ≥ and ≤ were set here for values at or beyond the usual limits of such assays
# [5] = source organism: Human immunodeficiency virus type 1 (NDK ISOLATE)
# [6] = source organism: Hepatitis B virus subtype adyw
# [7] = source organism: Plasmodium falciparum
sequence,measurement,setting,value
AVDLSHFLK,Kd,HLA-A*01:01; [5],≥ 5 µM
same,Kd,HLA-A*02:01 [1]; [5],≥ 5 µM
same,Kd,HLA-A*24:02; [5],≥ 5 µM
same,IC50,HLA-A*03:01 [2],0.149 µM
EADPTGHSY,Kd,HLA-A*24:02; source organism: Homo sapiens,≥ 5 µM
same,Kd,HLA-A*11:01; source organism: Homo sapiens,≥ 5 µM
ELRSRYWAI,Kd,HLA-A*24:02; source organism: Influenza A virus (A/Puerto Rico/8/1934(H1N1)),≥ 5 µM
FLPSDFFP,Kd,HLA-A*02:01 [1]; [6],≥ 50 µM
FLPSDFFPS,IC50,HLA-A*02:01 [3],0.117 µM
FLPSDFFPSVR,IC50,HLA-A*02:01 [3],0.305 µM
ILKEPVHGV,Kd,HLA-A*01:01; [5],≥ 5 µM
same,Kd,HLA-A*03:01 [4]; [5],≥ 5 µM
same,Kd,HLA-A*24:02; [5],≥ 5 µM
same,Kd,HLA-A*11:01; [5],≥ 5 µM
KPIVQYDNF,Kd,HLA-A*01:01; [7],≥ 5 µM
same,Kd,HLA-A*03:01 [4]; [7],≥ 5 µM
same,Kd,HLA-A*02:01 [1]; [7],≥ 5 µM
same,Kd,HLA-A*24:02; [7],≥ 5 µM
same,Kd,HLA-A*11:01; [7],≥ 5 µM
KRYEGLTQR,Kd,HLA-A*01:01; source organism: Homo sapiens,≥ 5 µM
same,Kd,HLA-A*03:01 [4]; source organism: Homo sapiens,≥ 5 µM
same,Kd,HLA-A*02:01 [1]; source organism: Homo sapiens,≥ 5 µM
same,Kd,HLA-A*24:02; source organism: Homo sapiens,≥ 5 µM
same,Kd,HLA-A*11:01; source organism: Homo sapiens,≥ 5 µM
LLGRNSFEV,Kd,HLA-A*01:01; source organism: Homo sapiens,≥ 5 µM
same,Kd,HLA-A*03:01 [4]; source organism: Homo sapiens,≥ 5 µM
same,Kd,HLA-A*24:02; source organism: Homo sapiens,≥ 5 µM
same,Kd,HLA-A*11:01; source organism: Homo sapiens,≥ 5 µM
PSDFFPSV,Kd,HLA-A*02:01 [1]; [6],≥ 50 µM
RRYQKSTEL,Kd,HLA-A*01:01; source organism: Homo sapiens,≥ 5 µM
same,Kd,HLA-A*03:01 [4]; source organism: Homo sapiens,≥ 5 µM
same,Kd,HLA-A*02:01 [1]; source organism: Homo sapiens,≥ 5 µM
same,Kd,HLA-A*24:02; source organism: Homo sapiens,≥ 5 µM
same,Kd,HLA-A*11:01; source organism: Homo sapiens,≥ 5 µM
SFLPSDFFPSV,Kd,HLA-A*02:01 [1]; [6],≥ 50 µM
WLSLLVPFV,Kd,HLA-A*01:01; [6],≥ 5 µM
